We go through five sequences from the supplement of paper PMC5998384.

Data set [1] deals with HeLa Kyoto. The experiment in a line: solubility in G1/S (NP-40 vs SDS abundance) (log2 ratio); higher = more soluble. To be noted: cell cycle stage: G1/S.
Data set [2] relates to HeLa Kyoto. In words: melting temperature (median over replicates), in situ; higher = more thermally stable.
Data set [3] relates to HeLa Kyoto. The experiment in a line: solubility change mitosis vs G1/S (difference of NP-40 vs SDS log2 ratios) (log2 ratio difference); higher = more soluble in mitosis.
Data set [4] concerns HeLa Kyoto. In words: thermal stability score vs G1/S (z-score of summed log2 fold changes over temperatures); higher = more thermally stable than in G1/S.
Setting [5] is: cell cycle stage: early G1 (4.5 h after nocodazole release).
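Throughout, for melting temperature (median over replicates), in situ: HeLa Kyoto cells synchronized by double thymidine or nocodazole block, proteins quantified by TMT10plex mass spectrometry, three independent biological replicates.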
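Throughout, for solubility change mitosis vs G1/S (difference of NP-40 vs SDS log2 ratios): synchronized HeLa Kyoto cells (double thymidine block for G1/S, nocodazole release for mitosis), protein amounts in NP-40 versus SDS lysates quantified by mass spectrometry, three biological replicates.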
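Throughout, for solubility in G1/S (NP-40 vs SDS abundance): HeLa Kyoto cells arrested at G1/S by double thymidine block, proteins quantified by TMT10plex mass spectrometry in mild NP-40 versus SDS extracts, three biological replicates.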
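Throughout, for thermal stability score vs G1/S (z-score of summed log2 fold changes over temperatures): synchronized HeLa Kyoto cells, proteins quantified by TMT10plex mass spectrometry, three biological replicates, mitosis taken 0.5 h after nocodazole release, G1/S directly after double thymidine block.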

On to “MEGLLHYINPAHAISLLSALNEERLKGQLCDVLLIVGDQKFRAHKNVLAASSEYFQSLFTNKENESQTVFQLDFCEPDAFDNVLNYIYSSSLFVEKSSLAAVQELGYSLGISFLTNIVSKTPQAPFPTCPNRKKVFVEDDENSSQKRSVIVCQSRNEAQGKTVSQNQPDVSHTSRPSPSIAVKANTNKPHVPKPIEPLHNLSLTEKSWPKDSSVVYAKSLEHSGSLDDPNRISLVKRNAVLPSKPLQDREAMDDKPGVSGQLPKGKALELALKRPRPPVLSVCSSSETPYLLKETNKGNGQGEDRNLLYYSKLGLVIPSSGSGSGNQSIDRSGPLVKSLLRRSLSMDSQVPVYSPSIDLKSSQGSSSVSSDAPGNVLCALSQKSSLKDCSEKTALDDRPQVLQPHRLRSFSASQSTDREGASPVTEVRIKTEPSSPLSDPSDIIRVTVGDAATTAAASSSSVTRDLSLKTEDDQKDMSRLPAKRRFQADRRLPFKKLKVNEHGSPVSEDNFEEGSSPTLLDADFPDSDLNKDEFGELEGTRPNKKFKCKHCLKIFRSTAGLHRHVNMYHNPEKPYACDICHKRFHTNFKVWTHCQTQHGIVKNPSPASSSHAVLDEKFQRKLIDIVREREIKKALIIKLRRGKPGFQGQSSSQAQQVIKRNLRSRAKGAYICTYCGKAYRFLSQFKQHIKMHPGEKPLGVNKVAKPKEHAPLASPVENKEVYQCRLCNAKLSSLLEQGSHERLCRNAAVCPYCSLRFFSPELKQEHESKCEYKKLTCLECMRTFKSSFSIWRHQVEVHNQNNMAPTENFSLPVLDHNGDVTGSSRPQSQPEPNKVNHIVTTKDDNVFSDSSEQVNFDSEDSSCLPEDLSLSKQLKIQVKEEPVEEAEEEAPEASTAPKEAGPSKEASLWPCEKCGKMFTVHKQLERHQELLCSVKPFICHVCNKAFRTNFRLWSHFQSHMSQASEESAHKESEVCPVPTNSPSPPPLPPPPPLPKIQPLEPDSPTGLSENPTPATEKLFVPQESDTLFYHAPPLSAITFKRQFMCKLCHRTFKTAFSLWSHEQTHN [ZBTB21]”, for which the “solubility in G1/S (log2)” value in the data set on HeLa Kyoto [1] is -0.0999. Further, the melting temperature in the data set on HeLa Kyoto [2] (cell cycle stage: mitosis) was determined as 51.7 °C. Moreover, in the data set with HeLa Kyoto [3], the “solubility change mitosis (log2)” value is -0.0564. Moreover, the thermal stability score with HeLa Kyoto [4] (setting [5]) came out at 0.647; with HeLa Kyoto [4] (cell cycle stage: mitosis), 0.374.

Turning to “MEGSEPVAAHQGEEASCSSWGTGSTNKNLPIMSTASVEIDDALYSRQRYVLGDTAMQKMAKSHVFLSGMGGLGLEIAKNLVLAGIKAVTIHDTEKCQAWDLGTNFFLSEDDVVNKRNRAEAVLKHIAELNPYVHVTSSSVPFNETTDLSFLDKYQCVVLTEMKLPLQKKINDFCRSQCPPIKFISADVHGIWSRLFCDFGDEFEVLDTTGEEPKEIFISNITQANPGIVTCLENHPHKLETGQFLTFREINGMTGLNGSIQQITVISPFSFSIGDTTELEPYLHGGIAVQVKTPKTVFFESLERQLKHPKCLIVDFSNPEAPLEIHTAMLALDQFQEKYSRKPNVGCQQDSEELLKLATSISETLEEKPDVNADIVHWLSWTAQGFLSPLAAAVGGVASQEVLKAVTGKFSPLCQWLYLEAADIVESLGKPECEEFLPRGDRYDALRACIGDTLCQKLQNLNIFLVGCGAIGCEMLKNFALLGVGTSKEKGMITVTDPDLIEKSNLNRQFLFRPHHIQKPKSYTAADATLKINSQIKIDAHLNKVCPTTETIYNDEFYTKQDVIITALDNVEARRYVDSRCLANLRPLLDSGTMGTKGHTEVIVPHLTESYNSHRDPPEEEIPFCTLKSFPAAIEHTIQWARDKFESSFSHKPSLFNKFWQTYSSAEEVLQKIQSGHSLEGCFQVIKLLSRRPRNWSQCVELARLKFEKYFNHKALQLLHCFPLDIRLKDGSLFWQSPKRPPSPIKFDLNEPLHLSFLQNAAKLYATVYCIPFAEEDLSADALLNILSEVKIQEFKPSNKVVQTDETARKPDHVPISSEDERNAIFQLEKAILSNEATKSDLQMAVLSFEKDDDHNGHIDFITAASNLRAKMYSIEPADRFKTKRIAGKIIPAIATTTATVSGLVALEMIKVTGGYPFEAYKNCFLNLAIPIVVFTETTEVRKTKIRNGISFTIWDRWTVHGKEDFTLLDFINAVKEKYGIEPTMVVQGVKMLYVPVMPGHAKRLKLTMHKLVKPTTEKKYVDLTVSFAPDIDGDEDLPGPPVRYYFSHDTD [UBA6]”, the “solubility in G1/S (log2)” value in the data set with HeLa Kyoto [1] is 0.00865. Further, the melting temperature in the data set on HeLa Kyoto [2] (cell cycle stage: G1/S) came out at 50.7 °C; in the data set with HeLa Kyoto [2] (cell cycle stage: mitosis), 49.8 °C. Also, in the data set with HeLa Kyoto [3], the “solubility change mitosis (log2)” value was -0.192. The thermal stability score in the data set on HeLa Kyoto [4] (setting [5]) was -0.786; in the data set on HeLa Kyoto [4] (cell cycle stage: mitosis), -0.409.

Turning to “MEHIRTTKVEQVKLLDRFSTSNKSLTGTLYLTATHLLFIDSHQKETWILHHHIASVEKLALTTSGCPLVIQCKNFRTVHFIVPRERDCHDIYNSLLQLSKQAKYEDLYAFSYNPKQNDSERLQGWQLIDLAEEYKRMGVPNSHWQLSDANRDYKICETYPRELYVPRIASKPIIVGSSKFRSKGRFPVLSYYHQDKEAAICRCSQPLSGFSARCLEDEHLLQAISKANPVNRYMYVMDTRPKLNAMANRAAGKGYENEDNYSNIRFQFVGIENIHVMRSSLQKLLEVNGTKGLSVNDFYSGLESSGWLRHIKAVMDAAIFLAKAITVENASVLVHCSDGWDRTSQVCSLGSLLLDSYYRTIKGFMVLIEKDWISFGHKFSERCGQLDGDPKEVSPVFTQFLECVWHLTEQFPQAFEFSEAFLLQIHEHIHSCQFGNFLGNCQKEREELKLKEKTYSLWPFLLEDQKKYLNPLYSSESHRFTVLEPNTVSFNFKFWRNMYHQFDRTLHPRQSVFNIIMNMNEQNKQLEKDIKDLESKIKQRKNKQTDGILTKELLHSVHPESPNLKTSLCFKEQTLLPVNDALRTIEGSSPADNRYSEYAEEFSKSEPAVVSLEYGVARMTC [MTMR6]”, the “solubility in G1/S (log2)” value in the data set on HeLa Kyoto [1] was -0.264. Further, the melting temperature was found to be 51 °C in the data set on HeLa Kyoto [2] (cell cycle stage: G1/S) and 50.5 °C in the data set with HeLa Kyoto [2] (cell cycle stage: mitosis). In addition, the “solubility change mitosis (log2)” value in the data set with HeLa Kyoto [3] stood at 0.0297. Also, the thermal stability score in the data set with HeLa Kyoto [4] (setting [5]) is -0.167; with HeLa Kyoto [4] (cell cycle stage: mitosis), 0.0404.

As for “MEKNGNNRKLRVCVATCNRADYSKLAPIMFGIKTEPEFFELDVVVLGSHLIDDYGNTYRMIEQDDFDINTRLHTIVRGEDEAAMVESVGLALVKLPDVLNRLKPDIMIVHGDRFDALALATSAALMNIRILHIEGGEVSGTIDDSIRHAITKLAHYHVCCTRSAEQHLISMCEDHDRILLAGCPSYDKLLSAKNKDYMSIIRMWLGDDVKSKDYIVALQHPVTTDIKHSIKMFELTLDALISFNKRTLVLFPNIDAGSKEMVRVMRKKGIEHHPNFRAVKHVPFDQFIQLVAHAGCMIGNSSCGVREVGAFGTPVINLGTRQIGRETGENVLHVRDADTQDKILQALHLQFGKQYPCSKIYGDGNAVPRILKFLKSIDLQEPLQKKFCFPPVKENISQDIDHILETLSALAVDLGGTNLRVAIVSMKGEIVKKYTQFNPKTYEERINLILQMCVEAAAEAVKLNCRILGVGISTGGRVNPREGIVLHSTKLIQEWNSVDLRTPLSDTLHLPVWVDNDGNCAALAERKFGQGKGLENFVTLITGTGIGGGIIHQHELIHGSSFCAAELGHLVVSLDGPDCSCGSHGCIEAYASGMALQREAKKLHDEDLLLVEGMSVPKDEAVGALHLIQAAKLGNAKAQSILRTAGTALGLGVVNILHTMNPSLVILSGVLASHYIHIVKDVIRQQALSSVQDVDVVVSDLVDPALLGAASMVLDYTTRRIY [GNE]”, the “solubility in G1/S (log2)” value with HeLa Kyoto [1] is -0.138. For the same sequence, the values for the melting temperature with HeLa Kyoto [2] (cell cycle stage: G1/S) and in the data set on HeLa Kyoto [2] (cell cycle stage: mitosis) were 55.2 °C and 55.8 °C, respectively. Besides, the “solubility change mitosis (log2)” value with HeLa Kyoto [3] is -0.159. For the same sequence, the thermal stability score in the data set with HeLa Kyoto [4] (setting [5]) was found to be 3.4; with HeLa Kyoto [4] (cell cycle stage: mitosis) it was 4.39.

Regarding “MEKSNETNGYLDSAQAGPAAGPGAPGTAAGRARRCAGFLRRQALVLLTVSGVLAGAGLGAALRGLSLSRTQVTYLAFPGEMLLRMLRMIILPLVVCSLVSGAASLDASCLGRLGGIAVAYFGLTTLSASALAVALAFIIKPGSGAQTLQSSDLGLEDSGPPPVPKETVDSFLDLARNLFPSNLVVAAFRTYATDYKVVTQNSSSGNVTHEKIPIGTEIEGMNILGLVLFALVLGVALKKLGSEGEDLIRFFNSLNEATMVLVSWIMWYVPVGIMFLVGSKIVEMKDIIVLVTSLGKYIFASILGHVIHGGIVLPLIYFVFTRKNPFRFLLGLLAPFATAFATCSSSATLPSMMKCIEENNGVDKRISRFILPIGATVNMDGAAIFQCVAAVFIAQLNNVELNAGQIFTILVTATASSVGAAGVPAGGVLTIAIILEAIGLPTHDLPLILAVDWIVDRTTTVVNVEGDALGAGILHHLNQKATKKGEQELAEVKVEAIPNCKSEEETSPLVTHQNPAGPVASAPELESKESVL [SLC1A4]”, the “solubility in G1/S (log2)” value with HeLa Kyoto [1] was -0.527. In addition, the results for the melting temperature with HeLa Kyoto [2] (cell cycle stage: G1/S) and with HeLa Kyoto [2] (cell cycle stage: mitosis) were 58.9 °C and 62.8 °C, respectively. For the same sequence, the “solubility change mitosis (log2)” value in the data set on HeLa Kyoto [3] was found to be 0.0714. Also, the values for the thermal stability score in the data set on HeLa Kyoto [4] (setting [5]) and in the data set on HeLa Kyoto [4] (cell cycle stage: mitosis) were -1.93 and -4.67, respectively.
